Patent US20250250593A1, “METHOD FOR PREPARING ALPHA-BRANCHED BETA'-HYDROXY CARBONYL COMPOUNDS BY ENZYMATIC-CATALYZED REDUCTIVE ALDOL REACTION” (Max-Planck-Gesellschaft zur Förderung der Wissenschaften …, priority 2022, published 2025)
Changes are numbered by the printed parent chain. Names may count otherwise.

Key:
[1] = target: T1, Kitasatospora setae crotonyl-CoA carboxylase/reductase (KsCcr) variant His365Asn (H365N), SEQ ID NO: 19 (Kitasatospora setae, UniProt E4N096, H365N); experiment: Steady-state kinetics of the reductive aldol reaction (crotonyl-CoA + formaldehyde + NADPH); assay type: biochemical
T1 construct: gene provided by JGI
T1 sequence (E4N096 1-445 H365N): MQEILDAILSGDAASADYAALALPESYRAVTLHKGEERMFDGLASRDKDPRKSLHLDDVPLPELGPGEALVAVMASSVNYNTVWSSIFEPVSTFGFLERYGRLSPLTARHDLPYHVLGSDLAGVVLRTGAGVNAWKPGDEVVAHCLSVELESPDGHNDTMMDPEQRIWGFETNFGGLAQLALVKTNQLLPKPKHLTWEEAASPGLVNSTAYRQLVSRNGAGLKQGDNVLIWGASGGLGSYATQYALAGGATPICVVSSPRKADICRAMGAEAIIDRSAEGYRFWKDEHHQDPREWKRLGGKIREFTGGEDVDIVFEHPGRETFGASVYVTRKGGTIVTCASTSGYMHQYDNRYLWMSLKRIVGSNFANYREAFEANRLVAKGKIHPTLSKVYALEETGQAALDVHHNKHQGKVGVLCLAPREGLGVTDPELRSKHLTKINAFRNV
Description: His-tagged KsCcr and its variants were expressed in E. coli BL21 (DE3). Cells in terrific broth were grown at 37° C. to an OD600=0.8-1.0 upon which expression for 12-16 h at 23° C. was induced by the addition of 500 μM IPTG (Isopropyl-D-β-thiogalactopyranoside). Cells were harvested for 15 min at 7500× g at 4° C. then resuspended in 2 mL of buffer A (50 mM Tris, 500 mM NaCl, 1 M L-Proline, pH=7.5) per gram of pellet. The suspension was treated with […] of DNAse I, 5 mM MgCl2, 10 μg/ml of lysozyme and incubated on ice for 20 min upon which cells were lysed using a sonicator. The lysate was clarified at 45000× g at 4° C. for 40 min and then loaded onto a pre-equilibrated 1 mL HisTrap FF column and washed with 15% buffer B (50 mM Tris, 500 mM NaCl, 1 M L-Proline, 500 mM imidazole, pH=7.5) for 20-30 column volumes until the UV 280 nm reached the baseline level. […]
Formaldehyde stock solution concentration was determined by following the formation of phenylhydrazone at 368 nm (εPhenylhydrazone,368 nm=6.1 mM^−1 cm^−1). […]
For reactions in which the full conversion to the aldol product was achieved assays were performed on a Cary-60 UV/Vis spectrophotometer (Agilent) at 30° C. using quartz cuvettes (1 mm, 3 mm or 10 mm path length; Hellma). […] Kinetic parameters for one substrate were determined by varying its concentration while the others were kept constant at 10 times their KM value.

[2] = substrate: NC(=O)C1=CN([C@@H]2O[C@H](COP(=O)(O)OP(=O)(O)OC[C@H]3O[C@@H](n4cnc5c(N)ncnc54)[C@H](OP(=O)(O)O)[C@@H]3O)[C@@H](O)[C@H]2O)C=CC1; experiment: cells, lysate or membranes named; conditions: other: apparent KM, 100 mM K2HPO4 pH 8.0, 30 °C, other substrates at 10 times KM, mean ± standard error
[3] = substrate: C/C=C/C(=O)SCCNC(=O)CCNC(=O)[C@H](O)C(C)(C)COP(=O)(O)OP(=O)(O)OC[C@H]1O[C@@H](n2cnc3c(N)ncnc32)[C@H](O)[C@@H]1OP(=O)(O)O; experiment: cells, lysate or membranes named; assay type: biochemical, Kitasatospora setae; conditions: other substrates at 10 times KM, mean ± standard error
Description: (§1) His-tagged KsCcr and its variants were expressed in E. coli BL21 (DE3). Cells in terrific broth were grown at 37° C. to an OD600=0.8-1.0 upon which expression for 12-16 h at 23° C. was induced by the addition of 500 μM IPTG (Isopropyl-D-β-thiogalactopyranoside). Cells were harvested for 15 min at 7500× g at 4° C. then resuspended in 2 mL of buffer A (50 mM Tris, 500 mM NaCl, 1 M L-Proline, pH=7.5) per gram of pellet. The suspension was treated with 10 mg/mL of DNAse I, 5 mM MgCl2, 10 μg/ml of lysozyme and incubated on ice for 20 min upon which cells were lysed using a sonicator. The lysate was clarified at 45000× g at 4° C. for 40 min and then loaded onto a pre-equilibrated 1 mL HisTrap FF column and washed with 15% buffer B (50 mM Tris, 500 mM NaCl, 1 M L-Proline, 500 mM imidazole, pH=7.5) for 20-30 column volumes until the UV 280 nm reached the baseline level. The protein was eluted by applying 100% buffer B, collected then pooled and desalted into 12.5 mM Tris, 125 mM NaCl, 1 M L-Proline pH=7.5. […] The protein was flash frozen in N2 (I) and stored at −80° C. if not immediately used for assays.
(§2) Assays were performed on a Cary-60 UV/Vis spectrophotometer (Agilent) at 30° C. using quartz cuvettes (10 mm path length; Hellma) contained K2HPO4 pH=8.0 and 3 mM phenylhydrazine.
(§3) For reactions in which the full conversion to the aldol product was achieved assays were performed on a Cary-60 UV/Vis spectrophotometer (Agilent) at 30° C. using quartz cuvettes (1 mm, 3 mm or 10 mm path length; Hellma). Reactions were performed in 100 mM K2HPO4 pH=8.0. Kinetic parameters for one substrate were determined by varying its concentration while the others were kept constant at 10 times their KM value. […] For reactions where both butyryl-CoA and the aldol product where formed the steady state parameters were determined using a discontinuous assay. Reactions of 100 μL volume were performed in 100 mM K2HPO4 pH=8.0 at 30° C. and each concentration was assayed in triplicates. Samples of 20 μL reaction were quenched with 2 μL of 50% formic acid and centrifuged for 10 min at 17′000 g at 4° C. 10 μL of this solution were diluted in 40 μL of 500 mM Tris HCl pH=7 and incubated overnight at room temperature. Samples were analyzed using by HPLC over an Agilent Eclipse Plus C18, 3.5 μm 100 Å, 100×2.1 mm, 4.6×100 mm column using 5% to 30% acetonitrile gradient over 7.5 min with 25 mM ammonium formate pH=8.1 as the aqueous phase.

[4] = test system: KsCcr; experiment: Native reductive carboxylation of crotonyl-CoA with CO2; assay type: biochemical, Kitasatospora setae; conditions: CO2 as electrophile
[5] = test system: KsCcr; experiment: HPLC analysis of reaction products: 2-HMB-CoA formed over total products from crotonyl-CoA and formaldehyde; assay type: biochemical, Kitasatospora setae; conditions: for Ratio of 2-HMB-CoA formed over total products: triplicates, mean ± standard deviation, values given as %
From the text: KsCcr wild-type (WT) natively promotes the NADPH-dependent reductive carboxylation of crotonyl-CoA into ethylmalonyl-CoA. […] Under these conditions, neither ethylmalonyl-CoA (carboxylation product) nor butyryl-CoA (reduction side product) were detected with LC-MS (see Table 2 further below). […] The compound was isolated and its structure was further verified using 2-dimensional NMR and high-resolution MS experiments. […] The newly introduced carbon was also observed in the ^13C-NMR experiment, confirming formation of aldol product 2-HMB-CoA by KsCcr.
The reaction was diluted 10 times into 5% methanol/Buffer 8.1 and analyzed by HPLC over an Agilent Eclipse Plus C18, 3.5 μm 100 Å, 100×2.1 mm, […] column using 5% to 30% acetonitrile gradient over 7.5 min with 25 mM ammonium formate pH=8.1 as the aqueous phase.

[6] = test system: KsCcr; experiment: Reductive aldol reaction with longer chain aldehydes (acetaldehyde, propionaldehyde): product share and diastereomeric ratio by LC-MS; assay type: biochemical, Kitasatospora setae
Description: The reaction catalyzed by KsCcr generates an (S)-configured stereocenter at the α-position of the reaction product. When using higher substituted aldehydes, a second stereocenter would be generated at the β-position, which would be highly interesting for synthetic organic applications. It was first tested, whether KsCcr would accept longer chain aldehydes. Indeed, in the presence of 500 mM acetaldehyde, the enzyme formed 35% of 2-ethyl-3-hydroxybutyryl-CoA (2-EHB-CoA) over total products, with substantial amounts of butyryl-CoA as a side product. To improve yield, an acyl-CoA oxidase was used to continually recycle the side product butyryl-CoA back into the substrate crotonyl-CoA. With this proof-reading strategy the yield of the reaction could be increased up to 72%. High resolution mass spectrometry together with ^1H^−1H COSY and ^13C-NMR experiments confirmed the structure of 2-EHB-CoA.
To determine the stereochemistry at the β-position the reaction was analyzed by LC-MS and compared the retention times to chemically synthesized (2S,3R)-EHB-CoA and (2S,3S)-EHB-CoA standards.
Determination of CoA esters was performed using a HRES-LC-MS. The chromatographic separation was performed on an Thermo Scientific Vanquish HPLC System using a Kinetex Evo C18 column ([…], 100 Å, 1.7 μm, Phenomenexc) equipped with a 20×2.1 mm guard column of similar specificity at a constant eluent flow rate of 0.3 mL/min and a column temperature of 40° C. with eluent A being 50 mM ammonium formate pH=8.1 and eluent B being MeOH (Honeywell) The injection volume was 1 μl. […]
Target sequence in this assay (as listed by the source): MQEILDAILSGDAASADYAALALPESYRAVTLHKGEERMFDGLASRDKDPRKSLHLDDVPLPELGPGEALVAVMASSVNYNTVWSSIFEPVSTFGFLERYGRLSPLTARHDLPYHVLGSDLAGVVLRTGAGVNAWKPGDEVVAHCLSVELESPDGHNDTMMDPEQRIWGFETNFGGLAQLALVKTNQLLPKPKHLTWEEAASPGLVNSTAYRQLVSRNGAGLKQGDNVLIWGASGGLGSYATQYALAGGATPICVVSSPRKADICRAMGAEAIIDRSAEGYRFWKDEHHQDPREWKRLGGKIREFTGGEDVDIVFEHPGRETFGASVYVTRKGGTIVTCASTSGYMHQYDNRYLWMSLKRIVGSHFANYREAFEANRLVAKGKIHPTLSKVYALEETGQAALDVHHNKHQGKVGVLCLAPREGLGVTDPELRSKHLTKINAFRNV

[7] = substrate: NC(=O)C1=CN([C@@H]2O[C@H](COP(=O)(O)OP(=O)(O)OC[C@H]3O[C@@H](n4cnc5c(N)ncnc54)[C@H](OP(=O)(O)O)[C@@H]3O)[C@@H](O)[C@H]2O)C=CC1; experiment: cells, lysate or membranes named; assay type: biochemical, Kitasatospora setae; conditions: other: 100 mM K2HPO4 pH 8.0, 30 °C, other substrates at 10 times KM, mean ± standard error
Description: as §1, §2, §3

[8] = substrate: C=O; experiment: cells, lysate or membranes named; assay type: biochemical, Kitasatospora setae; conditions: other: calculated with K = 1000 for the equilibrium between formaldehyde and its methylene diol form, pH 8.0, 30 °C
Description: as §1, §2, §3

[9] = other: apparent KM, 100 mM K2HPO4 pH 8.0, 30 °C
[10] = other: 100 mM K2HPO4 pH 8.0, 30 °C

## C=O [formaldehyde]
[1]; decreased to % of the WT enzyme
  apparent catalytic rate relative to WT enzyme: 10%
[1]; fold increase compared to WT
  apparent KM for formaldehyde, increase compared to WT: two-fold

B1: Kitasatospora setae crotonyl-CoA carboxylase/reductase (KsCcr), wild type (WT), SEQ ID NO: 1 (Kitasatospora setae KM-6054) (protein)
chain: T1 sequence (E4N096 1-445 H365N) with N365H
notes: gene provided by JGI
[2]
  Km: 389 ± 49 µM
[3]; [9]
  Km: 33 ± 4 µM
  kcat: 30 ± 1 s⁻¹

B2: KsCcr variant Asn81Leu: KsCcr active site variant Asn81Leu, SEQ ID NO: 20 (protein)
chain: T1 sequence (E4N096 1-445 H365N) with N81L, N365H
modifications: KsCcr variant Asn81Leu
[4]; C2-ene adduct accumulates
  carboxylation of crotonyl-CoA: completely impaired
[5]; 5 mM formaldehyde
  Ratio of 2-HMB-CoA formed over total products: 35 ± 0
[5]; 75 mM formaldehyde
  2-HMB-CoA produced (reductive aldol product): up to 64%
  Ratio of 2-HMB-CoA formed over total products: 64 ± 2

B3: KsCcr variant Phe170Ala: KsCcr variant Phe170Ala, SEQ ID NO: 23 (protein)
chain: T1 sequence (E4N096 1-445 H365N) with F170A, N365H
modifications: KsCcr variant Phe170Ala
[4]
  reductive carboxylation: 17%
[5]; 5 mM formaldehyde
  Ratio of 2-HMB-CoA formed over total products: 17 ± 0
[5]; 75 mM formaldehyde
  2-HMB-CoA produced (reductive aldol product): up to 64%
  Ratio of 2-HMB-CoA formed over total products: 64 ± 0

B4: KsCcr WT: wild type crotonyl-CoA carboxylase/reductase obtained from Kitasatospora setae, SEQ ID NO: 1 (protein)
chain: T1 sequence (E4N096 1-445 H365N) with N365H
modifications: Kitasatospora setae KsCCR crotonyl-CoA carboxylase/reductase
[6]; 500 mM acetaldehyde with acyl-CoA oxidase recycling butyryl-CoA to crotonyl-CoA (proof-reading)
  yield of the reaction (2-EHB-CoA): up to 72%
[6]; 500 mM acetaldehyde, butyryl-CoA as side product
  2-ethyl-3-hydroxybutyryl-CoA (2-EHB-CoA) over total products: 35%
[6]; compared with formaldehyde or acetaldehyde, product detected by MS
  conversion with propionaldehyde: strongly decreased
[5]; 5 mM formaldehyde
  Ratio of 2-HMB-CoA formed over total products: 72 ± 1±
[5]; 75 mM formaldehyde
  Ratio of 2-HMB-CoA formed over total products: 96 ± 0
[5]; ambient conditions, CO2 not strictly avoided
  aldol product generated: > 95%

B5: Kitasatospora setae crotonyl-CoA carboxylase/reductase (KsCcr) variant His365Asn (H365N), SEQ ID NO: 19 (Kitasatospora setae KM-6054; H365N) (protein)
chain: T1 sequence (E4N096 1-445 H365N)
notes: gene provided by JGI
[7]
  Km: 16 ± 7 µM
[3]; [10]
  Km: 69 ± 17 µM
  kcat: 3.1 ± 0.2 s⁻¹
[8]
  Km: 66 ± 23 µM
  kcat: 3.1 ± 0.2 s⁻¹
